The text below walks through data of the DeepSol protein solubility set.

A short description of the series: soluble on expression in E. coli; label from the status in PepcDB or PDB records.
With “MSLAKNRLRAIPLGGAGEVGRNMWVLEQNDEILVLDCGVMFPEADMLGVDLVLPDITYLRDQKDKIKAIVLTHGHEDHIGAVPYLVPELDFPPIYGTPLTLGMLAGKLKEHRLLDRARLVKMQAGESFTVGSFTIEPFSVAHSIPDTVGLAIDTPVGLAIYLTDWKFDHTPVDGRPTDLVKLSELGRRSPLLLITDCVRVESKGYTPSEQVVGEAFDSIFATAPGRIIVATFASNVSRVQQVIDSAEAYGRKVVVAGRSMENTTRIALELGYLRAQQGTLIRPQEAAGLADDQVAVICTGSQGEPMSALARMANRDYPHVKIKEGDTVVVSATPIPGNEVSVNRVINNLFRLGAEVIYGGSPSSLAVHVSGHAAQEELKMALAILRPEFVVPFHGDYRHMMLYRKLALGMGGLFSESNVIIPENEGHHHHHH”, the “soluble on expression in E. coli” value is reported as “not soluble”. Next, “MINNSNDIGFIQDIAGLDKLRQKAVNGDENAGQSALTAAARQFESIFTSMMLKSMRDANSDFKSDLMSSQNEDLYRQMLDEQMASEFSSSGSLGLADMIVAQLSTGQTASEQKGEDGFQEAMRRVEHARKTASERSNEDLVAAVYPLRKTQAVQSTQFDSRHSFVTKLKPYADKAARMLGVDSSLLIAQAALETGWGQKMVKNARGNSNNLFNIKADRSWQGDKVATQTLEYHNNVPVVEKAAFRSYASFDESFNDYVRFLENNPRYTNALDHGGNSERFIHGIHRAGYATDPQYADKVLRVKAQIDQMNLL”: “not soluble”; “SLSFTLEEEDITGTWYVKAMVVDKDFPEDRRPRKVSPVKVTALGGGNLEATFTFMREDRCIQKKILMRKTEEPGKFSAYGGRKLIYLQELPGTDDYVFYCKDQRRGGLRYMGKLVGRNPNTNLEALEEFKKLVQHKGLSEEDIFMPLQTGSCVLEH”: “soluble”. With “SLEEKVRPCIDLIDSLRALGVEQDLALPAIAVIGDQSSGKSSVLEALSGVALPRGSGIVTRCPLVLKLKKLVNEDKWRGKVSYQDYEIEISDASEVEKEINKAQNAIAGEGMGISHELITLEISSRDVPDLTLIDLPGITRVAVGNQPADIGYKIKTLIKKYIQRQETISLVVVPSNVDIATTEALSMAQEVDPEGDRTIGILTKPDLVDKGTEDKVVDVVRNLVFHLKKGYMIVKCRGQQEIQDQLSLSEALQREKIFFENHPYFRDLLEEGKATVPCLAEKLTSELITHICKSLPLLENQIKETHQRITEELQKYGVDIPEDENEKMFFLIDKINAFNQDITALMQGEETVGEEDIRLFTRLRHEFHKWSTIIENNFQEGHKILSRKIQKFENQYRGRELPGFVNYRTFETIVKQQIKALEEPAVDMLHTVTDMVRLAFTDVSIKNFEEFFNLHRTAKSKIEDIRAEQEREGEKLIRLHFQMEQIVYCQDQVYRGALQKVREKELEEEKKKKSWDFGAFQSSSATDSSMEEIFQHLMAYHQEASKRISSHIPLIIQFFMLQTYGQQLQKAMLQLLQDKDTYSWLLKERSDTSDKRKFLKERLARLTQARRRLAQFPGEG”, the “soluble on expression in E. coli” value is reported as “not soluble”. Next, “MAVTEVKLNAPLAVGVWAKMLNTETSKALPIAPLMGKSKNSIIQVLDMLEKSAGDAVTSGLRVQLMGDGVSEGQTLEGNEEALQFMNEKVHINELTHAVRIKYEGSIDQQRIPFSLRQEAKDGLVDWYADRLSLMFFIQAAGYTAPWMQFEGRTITLKPVHYGFNAPSEPSKLRVIRPAKKKTDEELTKEDVFTLDLIDQAVERAKLANPRLRPVRVDGKSAYVMYLHPIQVTQLRTNTKSGQWLDITKAAYDGSGAKNPIFNGSLGMYNGVILREAEHVPNGVNSKTQEPVPSVRRAVLLGAQSIIMAYGRIGNGATGSNEENSETRYKLVEELFDYQREFGLAAKTIIGMKKSRYTLPHSDQGGQDFGTIVIPSFAEAS”: “not soluble”; “MAHHHHHHMVSVDTSTRRFLEMFCDFDAKRCKLCNETFLQWHIHANGIPHAGREGMLLELVRPYCGTPDELIEMWWQRLNSCAAFHRIPGLSHDNPHERKRRLLYLLKVLKDRGILVETFNVSDNQSTNSARSWEFERLEFVGDNVVKYVLNNIISCAFPPHEGGTKGKMTCFQFVMDGNDGLARGYDHLDLQQLASSPRVVSKFKSDIVETLFAELQMYLWSTQHDIGTCPLVFPFTKDIYTLRALVQHVLYELGIELFLYHIRHINGMLQRVMRENHLQFVKADSALKPRAGARTGSLGVSTRRGDWSDDDDDYDCPQSYGTPAVSAPTAALMKVRSQRTHVQGTGAALFFASTNYDNFKRVVPIGGLLPRPFARQDLSVIPNHMPHLRSDGAMTRRMRRVGNAGWSTLHATATALTTLESVADGLALSAETTPRVGSEPVRLSVPRLKDEELIPELI”: “not soluble”. As to “MSLVMWLMAHSEKLEDLLEGKPVVIIEDGELAWSKLNNSNMTEFEFFMELRLRGVEQLGQVRLAILETNGQISVYFFEDDKVKPGLLILPSDCTQRYKVVPESADYACIRCSEIIHMNAGEKQLCPRCANPEWTKASRAKRVTEGHHHHHH”, the “soluble on expression in E. coli” value is recorded as “soluble”. As to “EGDPENGEKLQITIRRGKDGFGFTICCDSPVRVQAVDSGGPAERAGLQQLDTVLQLNERPVEHWKCVELAHEIRSCPSEIILLVWRV”, the “soluble on expression in E. coli” value is given as “soluble”. On to “MAKSLRASSHLNAKSVKRRGVFQKAVDAREQRISDKLKEDLLKQKLEDLKKKEEQGIDMDVDEKKSNEEAPRKKISTSGWRDGRHHTYKKAKLMKQSKKKTSFTRF”, for which the “soluble on expression in E. coli” value is listed as “soluble”. For “MAAQRRSLLQSEQQPSWTDDLPLCHLSGVGSASNRSYSADGKGTESHPPEDSWLKFRSENNCFLYGVFNGYDGNRVTNFVAQRLSAELLLGQLNAEHAEADVRRVLLQAFDVVERSFLESIDDALAEKASLQSQLPEGVPQHQLPPQYQKILERLKTLEREISGGAMAVVAVLLNNKLYVANVGTNRALLCKSTVDGLQVTQLNVDHTTENEDELFRLSQLGLDAGKIKQVGIICGQESTRRIGDYKVKYGYTDIDLLSAAKSKPIIAEPEIHGAQPLDGVTGFLVLMSEGLYKALEAAHGPGQANQEIAAMIDTEFAKQTSLDAVAQAVVDRVKRIHSDTFASGGERARFCPRHEDMTLLVRNFGYPLGEMSQPTPSPAPAAGGRVYPVSVPYSSAQSTSKTSVTLSLVMPSQGQMVNGAHSASTLDEATPTLTNQSPTLTLQSTNTHTQSSSSSSDGGLFRSRPAHSLPPGEDGRVEPYVDFAEFYRLWSVDHGEQSVVTAP”, the “soluble on expression in E. coli” value is recorded as “not soluble”. Next, “GSHMAEDEPFSGAKKLRHLLENTDELIVCPGVYDGLSARTAMELGFKSLYMTGAGTTASRLGQPDLAIAQLHDMRDNADMIANLDPFGPPLIADMDTGYGGPIMVARTVEHYIRSGVAGAHLEDQILTKRCGHLSGKKVVSRDEYLVRIRAAVATKRRLRSDFVLIARTDALQSLGYEECIERLRAARDEGADVGLLEGFRSKEQAAAAVAALAPWPLLLNSVENGHSPLITVEEAKAMGFRIMIFSFATLAPAYAAIRETLVRLRDHGVVGTPDGITPVRLFEVCGLQDAMEVDNGAGGKAFSEGV”: “soluble”; “MSTQMSVFLSTQAAQPQWGEKALISFAEQGATIHLQQTQDFSAIQRAARKLDNQGIRTAFLAGEGWDLESIWAFYQGYRDAKKRNTVEWKALAAAEQVELEARIKATDWTRDIINKSAEEVAPRQLATMAAEFIKSLAPDHVSYRIVKDKDLLTEGWEGIYAVGRGSERTSAMLQLDYNPTGDENAPVFACLVGKGITFDSGGYSLKPSNMMSAMKADMGGSGMITGALGLAIMRGFNKRVKLILCCAENMVSGRALKLGDIITYKNGKTVEIMNTDAEGRLVLADGLIYASEQKPQLIIDCATLTGAAKNALGNDYHALLSYDESLSQQALAAAKEENEALWALPLAEFHREMLPSNFADLSNISNGDYTPGASTAAAFLSYFVEGYQKGWLHFDCSATYRKSASDKWAAGATGMGVKMLARILMQQA”: “not soluble”. Consider “GSPAAAPPTLPPYFMKGSIIQLANGELKKVEDLKTEDFIQSAEISNDLKIDSSTVERIEDSHSPGVAVIQFAVGEHRAQVSVEVLVEYPFFVFGQGWSSCCPERTSQLFDLPCSKLSVGDVCISLTLKNLKNG”, for which the “soluble on expression in E. coli” value is on record as “soluble”. For “MIVLALDVYEGERAIKIAKSVKDYISMIKVNWPLILGSGVDIIRRLKEETGVEIIADLKLADIPNTNRLIARKVFGAGADYVIVHTFVGRDSVMAVKELGEIIMVVEMSHPGALEFINPLTDRFIEVANEIEPFGVIAPGTRPERIGYIRDRLKEGIKILAPGIGAQGGKAKDAVKAGADYIIVGRAIYNAPNPREAAKAIYDEIRGV”, the “soluble on expression in E. coli” value is given as “soluble”. Consider “MGHHHHHHSHMSWWDYGYQIAGMANRTTLVDNNTWNNSHIALVGKAMSSNETAAYKIMRTLDVDYVLVIFGGVIGYSGDDINKFLWMVRIAEGEHPKDIRESDYFTPQGEFRVDKAGSPTLLNCLMYKMSYYRFGEMQLDFRTPPGFDRTRNAEIGNKDIKFKHLEEAFTSEHWLVRIYKVKAPDNRETLDHKPRVTNIFPKQKYLSKKTTKRKRGYIKNKLVFKKGKKIFKKTV”, for which the “soluble on expression in E. coli” value is on record as “not soluble”. On to “MGSDKIHHHHHHMSTTASIENIDYWRHPSLSGIELSQAEFTHFSFDKHVHLDYHLGVVTQGAQQFVNKGSYYQLGQHSLSTLNPDDTHDGQSRDAEGYRVKVMSIPVEYMNEVSQELGLKEHFFSAPMVDDALLYHYFIHLHELLIQGQVTALASESHLFNFIQLLLRRHPSGILKCNSPQGLSTLQLGLVKQRMHDEPWHNTQLETLAGEVNLSKFQFLRQFKQATGMTPHAYLKRVRLELAKKSLCHGTLVADVAQQLGFFDQSHLNKAFKQAFLLSPVQFQRRML”, for which the “soluble on expression in E. coli” value is given as “not soluble”. In the case of “MAHHHHHHMAIACDSPVITLYKPRENGMIMPCHPEMSTVENIGQITDAHRLVPTAVRFSEDSQWVISAGEDETLAVSSVRKLKRVFVCTEFITRRHCMAFMNTFTSLCILASPPETSVLIIAACATDGTVVQWVVNPATSRSSYTKKLQLHLGALVAMDIMRDGTGS”, the “soluble on expression in E. coli” value is “not soluble”. Consider “MKIGVVGLGLIGASLAGDLRRRGHYLIGVSRQQSTCEKAVERQLVDEAGQDLSLLQTAKIIFLCTPIQLILPTLEKLIPHLSPTAIVTDVASVKTAIAEPASQLWSGFIGGHPMAGTAAQGIDGAEENLFVNAPYVLTPTEYTDPEQLACLRSVLEPLGVKIYLCTPADHDQAVAWISHLPVMVSAALIQACAGEKDGDILKLAQNLASSGFRDTSRVGGGNPELGTMMATYNQRALLKSLQDYRQHLDQLITLISNQQWPELHRLLQQTNGDRDKYVE”, for which the “soluble on expression in E. coli” value was “soluble”.

On to “MSLKKFQHEFWTATSGDLTQRRTPLATPDYQSTSAAAVKIIIDPADRHQPWLGGGAAITDSAAYLLWSVMSAEQRRALLTELFDPDQGGFSSVRVPLGSCDFQSQDFYTYDDVPYGEHDQKLEQFSIGTGQPGAPDATKDLKHIVPVLQEILAINPAVKVIASPWSAPAWMKNTGHLTHGGHLRFGEFTGNGYTEENRFEYIYAQYFIRYIEAYQKLGIPIYGLTIQNEPSNAAHWPAMIWTVPQLADFGYRYLRPALNHSFPDTKLYLLDDSFHALTKPITAEVTPEQAAAFDGLAVHTYSGPYDNLYHANRAYPNWSTIMTERRCMMTDTPEEAAHIMFGIIGNWLVHNGLSMITLWNLALDERGLPNAADSTGREGVVTIDHTTGKVQRNLEYFMLRNFGQDVSVGATVIGSTNYTRDGYTGGLGSVAFLGTAGDIAAHLYNPTAQPIQAAVTINGNGANWQLVTVPPYGTVTLHKSDAPLNTTNVPVDDEFPLNPTPANHSDVAPGQHEGHHHHHH”, for which the “soluble on expression in E. coli” value is listed as “not soluble”. For the sequence “MFSRDRVAYTDLTVNSACDDLFPGVEDVDAQATLQLRAALDAFEEGVFEYHNRASQAGEADAGKHSARGGGQRRTRREKIYASRIPEDRQFFRPVDQQSAEWAAFKPHLWLRGRRIHSADAAAHAGQHHHLHHHTPAGAPQAQQPALAASPVHAGAGLPAGTAGAGADAGAGAGTGAGLELRGTRAVLAPPPPEAEDAADPDRECVLVDHGDFAESLAVQWDAWEAAATRGGPQALRRRRGRPRDEKAVAVGLPPVEPRSAILYDVAEELLPDVWQRLAPLLAPLLARVAEERKKRPASSAAAAFRGAGAGGGGGGGLGGGSFGGGDFEILTFS”, the “soluble on expression in E. coli” value is on record as “not soluble”.
